What all share (format): cell-based, human
For test [1], the system named is MDA-MB-435 β4+-expressing cells (3A7). The test can be described thus: Matrigel chemoinvasion assay, MDA-MB-435 β4+ transfectants. The following applies: transient transfection; NIH 3T3 conditioned media as chemoattractant.
Protocol: Following the transfection protocol, the ability of the transfected cells to invade Matrigel was assayed. The data are shown as the relative invasion of NFAT transfected cells compared to vector alone-transfected cells (100%). The data shown are mean values (±SEM) of 2 experiments performed in triplicate.
(§1) Invasion assays were performed using standard methods (see Shaw et al., Cell 91:949-960, 1997) using Transwell chambers coated with Matrigel. Briefly, cells were co-transfected with the indicated NFAT constructs, 1 μg EGFP-N1 (Clontech) and 1 μg pCS2-(n)β-Gal, a •gal expression vector (Dave Turner, University of Michigan) using the Lipofectamine procedure (Life Technologies), and after twenty-four hours, the cells were resuspended in serum-free medium containing 0.1% bovine serum albumin (BSA) and added to each well. […] Cells that stained positive for β-galactosidase expression were counted, and the mean of triplicate assays for each experimental condition was used as % relative invasion.
The subject of test [2] is NFAT-5 transcriptional activity. Kind of test: NFAT-5-luc luciferase reporter assay in MDA-MB-435 β4+ (3A7) cells. The following applies: co-transfected with dominant negative NFAT-5 (GFP-ND5). How it is done:
FIGS. 4A-4D are graphs showing that NFAT-5 transcriptional activity is induced in an α6β4-dependent manner. FIG. 4A is a graph showing NFAT-5 transcriptional activity in control parental cells, β4 (3A7), and β4.ΔCYT (3C12) MDA-MB-435 transfectants that were transiently transfected with NFAT-5-luc. The cells were grown in complete media for twenty-four hours, trypsinized, incubated with anti-α6 (clone 135-13C) for 30 minutes, then plated onto secondary antibody-coated plates, either in the presence (+) or absence (−) of NIH 3T3 conditioned medium (CM), for twenty-four hours. As a positive control, cells were also stimulated with PMA (phorbol 12-myristate 13-acetate) and ionomycin (100 nM each) for twenty-four hours. Following stimulation, cells were lysed and NFAT-5 transcriptional activity was assayed. […] NFAT-5 transcriptional activity was measured as described above. […] NFAT-5 transcriptional activity was measured as described above. […]
Cells were transiently co-transfected with an NFAT luciferase reporter construct (NFAT-luc, 10 μg) and 1 μg pCS2-(n)β-gal using the Lipofectamine procedure (Life Technologies). Twenty-four hours after the transfection, luciferase and beta-galactosidase assays were performed using standard assays on total cell lysates and measured on a luminometer. […]

The test system of test [3] is MDA-MB-231 cells. The test can be described thus: Matrigel chemoinvasion assay, MDA-MB-231 cells. The note with it: transient transfection. The text has this:
FIGS. 3A-3C show the role of NFAT-5 in mediating carcinoma invasion. FIG. 3A is a graph showing luciferase levels in MDA-MB-435 cells expressing vector alone, β4.ΔCYT (3C12), or wild-type β4^+ (3A7 clone) that were transiently transfected with an NFAT-5-luciferase reporter construct (NFAT-5-luc). Luciferase activity is shown as relative luciferase units. […] The lysates were resolved by SDS PAGE and immunoblotted with anti-NFAT-5 (α-NFAT-5, top panel) or anti-p85 (α-p85, bottom panel) The position of the 175 kDa and 90 kDa markers are indicated (left). […] The ability of the transfected cells to invade Matrigel was then assayed and the data are shown as the relative invasion of NFAT-5-transfected cells compared to vector alone-transfected cells (100%).
Invasion assays were performed using standard methods (see Shaw et al., Cell 91:949-960, 1997) using Transwell chambers coated with Matrigel. […] Cells that stained positive for β-galactosidase expression were counted, and the mean of triplicate assays for each experimental condition was used as % relative invasion. […]

The subject of test [4] is Clone A colon cancer cell line. The test can be described thus: Matrigel chemoinvasion assay, Clone A cells. The note with it: transient transfection.
Protocol: as §1

B1: ND5: dominant negative NFAT-5 mutant, amino acids 1-471 (SEQ ID NO:17) of NFAT5a; blocks dimerization of endogenous NFAT-5 (protein, listed as Homo sapiens)
chain: MGGACSSFTTSSSPTIYSTSVTDSKAMQVESCSSAVGVSNRGVSEKQLTSNTVQQHPSTPKRHTVLYISPPPEDLLDNSRMSCQDEGCGLESEQSCSMWMEDSPSNFSNMSTSSYNDNTEVPRKSRKRNPKQRPGVKRRDCEESNMDIFDADSAKAPHYVLSQLTTDNKGNSKAGNGTLENQKGTGVKKSPMLCGQYPVKSEGKELKIVVQPETQHRARYLTEGSRGSVKDRTQQGFPTVKLEGHNEPVVLQVFVGNDSGRVKPHGFYQACRVTGRNTTPCKEVDIEGTTVIEVGLDPSNNMTLAVDCVGILKLRNADVEARIGIAGSKKKSTRARLVFRVNIMRKDGSTLTLQTPSSPILCTQPAGVPEILKKSLHSCSVKGEEEVFLIGKNFLKGTKVIFQENVSDENSWKSEAEIDMELFHQNHLIVKVPPYHDQHITLPVSVGIYVVTNAGRSHDVQPFTYTPDPAA
For the molecule B1, the “carcinoma invasion (relative invasion vs vector alone)” value in test [1], in test [3] and in test [4] was “significantly inhibited invasion” in each case. The “co-stimulated NFAT-5 transcriptional activity (α6β4 + conditioned media, or PMA/ionomycin)” value in test [2] is listed as “inhibited”.
